In the nanobody polyreactivity screen of Harvey et al. (2022):

Test: yeast display, Sf9 membrane polyspecificity reagent, FACS + sequencing; frameworks hold sequencing errors
Outline: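 Nanobodies came from a synthetic yeast display library in Saccharomyces cerevisiae BJ5465, induced with galactose for 36–48 hours and stained for 1 hour at 4 °C with 10% biotinylated, detergent-solubilized Sf9 membrane reagent. Cells were enriched on streptavidin microbeads and then FACS-sorted, with low and high (top ~1%) gates set on anti-HA fluorescence for expression and streptavidin fluorescence for reagent binding. Each polyreactivity label reflects the gate a clone came from. Genes were amplified by colony PCR, sequenced by MiSeq 2 × 250 and filtered by CDR length.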

Sequence | polyreactivity (PSR sort gate)
QVQLVESGGGLVQAGGSLRLSCAASGRTFDDNAMGWYRPAPGKARELVAAISTTGSTNYADSVKGRFTISRDNAQTTVYLQMNSLKPEDTAFYYCAADSTPYVRSGNYDYWGQGTQVTVSS | low polyreactivity
QVQLVESGGGLVQAGGSLRLSCAASGRTFDDNAMGWYRQAPGKERELVAAINFTGGSTYYADSVKGRFTISRDNAQNTVSLQMNSLKPEDTAVYYCAVRPGYYCGYWPRFGYWGQGSQVTVSS | low polyreactivity
QVQLVESGGGLVQAGGSLRLSCAASGRTFDDYPMGWYRQAPGKDSELVAAITRRGGSTYYADSVKGRFTISRDNAKNTVYLQMNSLNPEDTAVYYCAADLFFKARGYDYWGQGTQVTVST | high polyreactivity
QVQLVESGGGLVQAGGSLRLSCAASGRTFDGYAMGWYRPAPGKERELVAAISWGGGSTYYADSVKGRFTISRDNAKNTVYLQMNSLKPEDTAVYYCNAYTYYYGNDYWGQGTQVNVSS | high polyreactivity
QVQLVESGGGLVQAGGSLRLSCAASGRTFDHNAMGWYRQAPGKERELVAAINSSGGRTYYADSVKGRFTISRDNAQNTVYLQMNSLQPEDTAVYYCATVNVRGPPYDYWGQGTQVTVSS | high polyreactivity
QVQLVESGGGLVQAGGSLRLSCAASGRTFDIYAMGWYRQAPGKARELVAAISIAGSTNYADSVKGRFTISRDNAKNTVYLQMNSLKPEDTAVYYCAAAKPKKSRGSAYEYWGQGTLVTVSS | high polyreactivity
QVQLVESGGGLVQAGGSLRLSCAASGRTFDKYAMGWYRQAPGKERELVAAITRSGGSTYYADSVKGRFTISRDNAKNTVYLQMNSLKPEDTAVYYCAKRYWSYRWKYDYWGQGTQVTVSS | high polyreactivity
QVQLVESGGGLVQAGGSLRLSCAASGRTFDLYAMGWYRQAPGKERELVARITNIDDSTYYADSVKGRFTISRDNAKNTVYLQMNSLKPEDTAVYYCNAVVTKYAKSRFLYYYWGQGTQVTVSS | high polyreactivity
QVQLVESGGGLVQAGGSLRLSCAASGRTFDPNVMGWYRQAPGKERELVAAISRGGSTYYADSVKGRFTISRDNAKNTVYLQMNSLKPEDTAVYYCAATHYGHSISYWFDYWGQGTQVTVSS | high polyreactivity
QVQLVESGGGLVQAGGSLRLSCAASGRTFDRDAKGWYRQAPGKERELVAVIRFIGGSTYYAYSVKGRFTISRDNAKNTVFLQMNSLKQEDTAVYDCATRGPIWGQRYYKGYYWGQGTQVTVSS | low polyreactivity
QVQLVESGGGLVQAGGSLRLSCAASGRTFDRNTMGWYRQAPGKQRELVAAISSSGGSTYYADSVKGRFTISRDNAKNTVYLQMNSLKPEDTAVYYCAARQSPNRWMGYWGQGTQVTVSS | high polyreactivity
QVQLVESGGGLVQAGGSLRLSCAASGRTFDTNAMGWYRQAPGKERELVAGITIGGSTNYADSVKGRFTISRDNAKNTVYLQMNILKPEDTAVYYCAADYGSVRGYAADYYEPEYDYWGQGTQVTVSS | low polyreactivity
QVQLVESGGGLVQAGGSLRLSCAASGRTFDVYTMGWYRQAPGKERELVAAINGGGSTYYADSVKGRFTISRDNAKNTVYSQMNSLKPEDTAVYYCAAKFRAGRSSYYWGQGTQVTVSS | high polyreactivity
QVQLVESGGGLVQAGGSLRLSCAASGRTFDYNAMGWYRQAPGKERELVAAISSSGGSTYYADSVKGRFTISRDNAKNTVYLQMNSLKAEDTAVYYCATLYPRKSIYYYWGQGTQVTVSS | high polyreactivity
QVQLVESGGGLVQAGGSLRLSCAASGRTFDYYVMGWYRQAPGKERELVAAISRRGGSTYYADSVKGRFTISRDNAKNTVYLQMNSLKPEDTAVYYCAAQYYYAREDYWGQGTQVTVSS | high polyreactivity
QVQLVESGGGLVQAGGSLRLSCAASGRTFEGNAMGWYRQAPGKERELVAAISTSGGRTYYADSVKGRFTISRDNAKNTVYLQMNSLKPDDTAVYYCAVDHYSSYEYWGQGTQVTVSS | low polyreactivity

Sequence | polyreactivity (PSR sort gate)
QVQLVESGGGLVQAGGSLRLSCAASGRTFEGNAMGWYRQAPGKERELVAAITSGGRTNYADSVKGRFTISRDNAKNTVYLQMNSLKPEDTAVYYCAVETRDRSTYFPGQAYDYWGQGTQVTVSS | low polyreactivity
QVQLVESGGGLVQAGGSLRLSCAASGRTFERNAMGWYRPAPGKERELVAAITWSGVSTYYADSVKGRFTISRDNAKNTVYLQMNSLKPEDTAVYYCAADWDWRFHRMNYWGQGTQVTVSS | low polyreactivity
QVQLVESGGGLVQAGGSLRLSCAASGRTFEVYTMGWYRQAPGKERELVARIRRGASTNYADSVKGRFTISRDNAKNTVYLQMNSLKPEDTAVYYCNARYTAVAVRWTWPYETQADDYWGQGTQVTVSS | low polyreactivity
QVQLVESGGGLVQAGGSLRLSCAASGRTFEYYAMGWYRPAPGKERELVAAITWSVGSTYYADSVKGRFTISRDNAKNTVYLQMNSLKPEDTAGYYCAVDVVYTWPFPVEYYYWGQGTQVTVSS | high polyreactivity
QVQLVESGGGLVQAGGSLRLSCAASGRTFEYYAMGWYRQAPGKERELVAAITYSGDSTYYADSVKGRFTISRDNAKNTVYLQMNSLKPEDTAVYYCAADWSSLKDDYWGQGTQVTVSS | low polyreactivity
QVQLVESGGGLVQAGGSLRLSCAASGRTFFDNAMGWYRQAPGKEREFVAAISYNGGSTYFADSVKGRFTISRDNAKNTVYLQMNSLKPEDTAVYYCAADPNYGYDYWGQGTQVTVSS | low polyreactivity
QVQLVESGGGLVQAGGSLRLSCAASGRTFFENAMGWYRQAPGKEREFVAAISYNGGSTYYADSVKGRFTISRDNAKNTVYLQMNSLKTEDTAVYYCAADPNYGYDYWGQGTQVTVSS | low polyreactivity
QVQLVESGGGLVQAGGSLRLSCAASGRTFFFYAMGWYRQAPGKERELVASITWSGGTRTYYADSVKGRFTISRDNAKNTVYLQMNSLKPEDTAFYYCAATDSSYWFNRYGGKYYYWGQGTQVTVSS | high polyreactivity
QVQLVESGGGLVQAGGSLRLSCAASGRTFFGNAKGWYRQAPGKERELVASISTRGGSTYYADSVKGRFTISRDNAKNTVYLQMNSLKPEDTAVYYCAKRGRDRRIYGYWGQGTQVTVSS | high polyreactivity
QVQLVESGGGLVQAGGSLRLSCAASGRTFFGYTMGWYRHAPGKERELVAVISKRGGRTYYADSVKGRFTISRDNAKNTVYLQMNSLKPEDTAVYYCNRVKDSNVSQAMEYWGQGTQVTVSS | high polyreactivity
QVQLVESGGGLVQAGGSLRLSCAASGRTFFINAMGWYRPAPGKERELVAAIRVGAGSTYYADSVKGRVTISRDNAKYTVYLQMNSLKPEDTAVYYCAKRTATSTRKYDYWGQGTQVTVSS | high polyreactivity
QVQLVESGGGLVQAGGSLRLSCAASGRTFFINTMGWYRQAPGKERELVAAITWSGGSTYYADSVKGRFTISRDNAKNTVYLQMNSLKPEDTAVYYCAAVYVYRPDIIYVEVAYDYWGQGTQVTVSS | low polyreactivity
QVQLVESGGGLVQAGGSLRLSCAASGRTFFIYAMGWYRQAPGKERELVAAITRGGTNYADSVKGRFTISRDNAKNTVYLQMNSLKPEDTAVYYCYTYTYAGYNYWGQGTQVTVSS | high polyreactivity
QVQLVESGGGLVQAGGSLRLSCAASGRTFFPYGMGWYRQAPGKERELVATISWSGGSTHYADSVKGRFTISRDNAKNTVYLQMNSLKPEDTAVYYCAAGNSLYWYNSGNYWGQGTQVTVSS | low polyreactivity
QVQLVESGGGLVQAGGSLRLSCAASGRTFFPYVMGWYRQAPGKERELVAAISNSGTSTYYADSVKGRFTISRDNAKNTVYLQMNSLKPEDTAVYYCAARRYVGLYYWGQGTQVTVSS | high polyreactivity
QVQLVESGGGLVQAGGSLRLSCAASGRTFFRNAMGWYRQAPGKERELVAAISKRGGSTYYADSVKGRFTISRDNAKNTVYLQMNSLKPEDTAVYYCNADPRTVGLDYWGQGTQVTVSS | high polyreactivity
